Source: article PMC2756588

T1: Sla1-2, P32790
T1 sequence (P32790 60-140, looked up): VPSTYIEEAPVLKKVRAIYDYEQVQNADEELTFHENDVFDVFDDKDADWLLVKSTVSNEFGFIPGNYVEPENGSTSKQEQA

T2: Bzz1-2, P38822
T2 sequence (P38822 568-633, looked up): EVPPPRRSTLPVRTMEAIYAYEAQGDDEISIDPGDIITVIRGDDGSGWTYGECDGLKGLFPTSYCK

T3: Lsb4, P32793
T3 sequence (P32793 402-468, looked up): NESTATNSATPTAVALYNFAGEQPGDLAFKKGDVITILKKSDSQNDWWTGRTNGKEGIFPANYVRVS

T4: Pex13, P80667
T4 sequence (P80667 295-386, looked up): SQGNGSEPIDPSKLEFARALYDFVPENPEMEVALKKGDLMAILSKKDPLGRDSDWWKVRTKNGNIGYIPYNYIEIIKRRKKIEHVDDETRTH

T5: Myo5, Q04439
T5 sequence (Q04439 1072-1160, looked up): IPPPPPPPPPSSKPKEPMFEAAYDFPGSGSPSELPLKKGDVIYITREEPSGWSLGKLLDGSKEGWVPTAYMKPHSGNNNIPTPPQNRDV

T6: Cdc25, P04821
T6 sequence (P04821 50-136, looked up): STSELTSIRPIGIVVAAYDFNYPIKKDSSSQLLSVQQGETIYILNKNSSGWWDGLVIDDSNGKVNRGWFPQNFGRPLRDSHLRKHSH

T7: Fus1, P11710
T7 sequence (P11710 432-512, looked up): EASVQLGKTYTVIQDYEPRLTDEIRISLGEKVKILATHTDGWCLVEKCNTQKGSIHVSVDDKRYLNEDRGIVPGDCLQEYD

T8: Hof1, Q05080
T8 sequence (Q05080 590-669, looked up): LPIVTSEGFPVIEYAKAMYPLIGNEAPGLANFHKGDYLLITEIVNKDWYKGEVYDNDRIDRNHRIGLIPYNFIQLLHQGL

T9: Boi2, P39969
T9 sequence (P39969 32-116, looked up): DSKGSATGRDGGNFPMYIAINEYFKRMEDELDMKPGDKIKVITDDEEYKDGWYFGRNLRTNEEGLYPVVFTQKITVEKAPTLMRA

T10: Bbc1, P47068
T10 sequence (P47068 1-78, looked up): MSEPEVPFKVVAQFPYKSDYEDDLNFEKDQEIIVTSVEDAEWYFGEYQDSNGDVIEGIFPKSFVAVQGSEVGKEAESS

T11: Bzz1-1, P38822
T11 sequence (P38822 478-572, looked up): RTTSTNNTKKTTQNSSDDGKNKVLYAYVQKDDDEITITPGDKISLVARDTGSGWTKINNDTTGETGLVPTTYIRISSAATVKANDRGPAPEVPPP

T12: Lsb3, P43603
T12 sequence (P43603 385-451, looked up): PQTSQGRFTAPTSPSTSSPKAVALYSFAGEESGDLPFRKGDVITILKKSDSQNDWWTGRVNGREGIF

T13: Lsb1, P53281
T13 sequence (P53281 45-122, looked up): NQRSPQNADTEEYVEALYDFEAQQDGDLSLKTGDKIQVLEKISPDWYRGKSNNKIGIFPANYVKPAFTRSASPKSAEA

T14: Bud14, P27637
T14 sequence (P27637 247-328, looked up): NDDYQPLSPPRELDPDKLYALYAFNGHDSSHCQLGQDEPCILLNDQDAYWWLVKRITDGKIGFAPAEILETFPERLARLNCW

T15: Boi1, P38041
T15 sequence (P38041 1-86, looked up): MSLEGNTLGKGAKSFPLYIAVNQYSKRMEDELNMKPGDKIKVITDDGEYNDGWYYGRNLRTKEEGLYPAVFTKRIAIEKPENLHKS

T16: Cyk3, Q07533
T16 sequence (Q07533 1-83, looked up): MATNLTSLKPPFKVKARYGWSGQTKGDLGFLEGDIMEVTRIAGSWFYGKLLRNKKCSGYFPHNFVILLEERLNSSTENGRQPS

T17: Abp1, P15891
T17 sequence (P15891 535-592, looked up): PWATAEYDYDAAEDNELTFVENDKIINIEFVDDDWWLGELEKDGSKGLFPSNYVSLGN

T18: Nbp2, Q12163
T18 sequence (Q12163 103-180, looked up): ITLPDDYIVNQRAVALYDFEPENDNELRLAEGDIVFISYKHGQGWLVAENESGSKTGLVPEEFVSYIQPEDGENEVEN

T19: Sla1-3, P32790
T19 sequence (P32790 344-424, looked up): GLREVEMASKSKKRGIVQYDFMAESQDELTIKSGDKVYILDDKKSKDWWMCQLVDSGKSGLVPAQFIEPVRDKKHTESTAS

T20: Hse1, P38753
T20 sequence (P38753 208-285, looked up): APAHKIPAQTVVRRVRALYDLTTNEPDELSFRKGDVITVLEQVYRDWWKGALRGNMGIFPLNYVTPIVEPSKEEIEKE

T21: Pin3, Q06449
T21 sequence (Q06449 53-122, looked up): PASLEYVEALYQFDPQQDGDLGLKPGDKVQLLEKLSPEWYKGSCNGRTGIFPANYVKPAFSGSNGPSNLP


Key:
Test in all cases: SPOT array
Sla1-2, P32790 = target: T1, Sla1-2, P32790; details: median of control spots 712
Rvs167, P39743 = details: median of control spots 2707
Chain of Rvs167, P39743 (P39743 419-482): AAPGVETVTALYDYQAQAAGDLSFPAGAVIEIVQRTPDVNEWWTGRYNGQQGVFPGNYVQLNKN

Bzz1-2, P38822 = target: T2, Bzz1-2, P38822; details: median of control spots 4538
Lsb4, P32793 = target: T3, Lsb4, P32793; details: median of control spots 397
GST = details: median of control spots 978
Pex13, P80667 = target: T4, Pex13, P80667; details: median of control spots 1341
Myo5, Q04439 = target: T5, Myo5, Q04439; details: median of control spots 471
Cdc25, P04821 = target: T6, Cdc25, P04821; details: median of control spots 969
Fus1, P11710 = target: T7, Fus1, P11710; details: median of control spots 1200
Hof1, Q05080 = target: T8, Hof1, Q05080; details: median of control spots 4086
Sho1, P40073 = details: median of control spots 1148
Chain of Sho1, P40073 (P40073 287-367): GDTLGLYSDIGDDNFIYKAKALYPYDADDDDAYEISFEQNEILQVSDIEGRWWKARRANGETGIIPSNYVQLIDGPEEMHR

Boi2, P39969 = target: T9, Boi2, P39969; details: median of control spots 1161
Bbc1, P47068 = target: T10, Bbc1, P47068; details: median of control spots 796
Bzz1-1, P38822 = target: T11, Bzz1-1, P38822; details: median of control spots 4446
Lsb3, P43603 = target: T12, Lsb3, P43603; details: median of control spots 406
Lsb1, P53281 = target: T13, Lsb1, P53281; details: median of control spots 388
Bud14, P27637 = target: T14, Bud14, P27637; details: median of control spots 956
Bem1-1, P29366 = details: median of control spots 4282
Chain of Bem1-1, P29366 (P29366 55-141): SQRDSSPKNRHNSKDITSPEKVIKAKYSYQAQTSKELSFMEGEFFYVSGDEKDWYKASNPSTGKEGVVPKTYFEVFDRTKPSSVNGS

Boi1, P38041 = target: T15, Boi1, P38041; details: median of control spots 1162
Cyk3, Q07533 = target: T16, Cyk3, Q07533; details: median of control spots 1451
Bem1-2, P29366 = details: median of control spots 4347
Chain of Bem1-2, P29366 (P29366 139-227): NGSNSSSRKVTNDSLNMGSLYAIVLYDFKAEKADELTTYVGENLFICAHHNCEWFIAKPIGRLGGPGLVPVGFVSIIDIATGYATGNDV

Abp1, P15891 = target: T17, Abp1, P15891; details: median of control spots 935
Myo3, P36006 = details: median of control spots 468
Nbp2, Q12163 = target: T18, Nbp2, Q12163; details: median of control spots 357
Sla1-3, P32790 = target: T19, Sla1-3, P32790; details: median of control spots 5475
Hse1, P38753 = target: T20, Hse1, P38753; details: median of control spots 1727
Pin3, Q06449 = target: T21, Pin3, Q06449; details: median of control spots 2171

Row | Binder | SPOT intensity (Sla1-2, P32790) | SPOT intensity (Rvs167, P39743) | SPOT intensity (Bzz1-2, P38822) | SPOT intensity (Lsb4, P32793) | SPOT intensity (GST) | SPOT intensity (Pex13, P80667) | SPOT intensity (Myo5, Q04439) | SPOT intensity (Cdc25, P04821) | SPOT intensity (Fus1, P11710) | SPOT intensity (Hof1, Q05080) | SPOT intensity (Sho1, P40073) | SPOT intensity (Boi2, P39969) | SPOT intensity (Bbc1, P47068) | SPOT intensity (Bzz1-1, P38822) | SPOT intensity (Lsb3, P43603) | SPOT intensity (Lsb1, P53281) | SPOT intensity (Bud14, P27637) | SPOT intensity (Bem1-1, P29366) | SPOT intensity (Boi1, P38041) | SPOT intensity (Cyk3, Q07533) | further results
1 | RHLKLVPSTPMDIPW | 3 | 43 | 411 | 6 | 0 | 99 | 10 | 14 | 1430 | 59 | 72 | 0 | 1 | 6 | 0 | 14 | 8 | 189 | 0 | 0 | SPOT intensity (Bem1-2, P29366): 90; SPOT intensity (Abp1, P15891): 37; SPOT intensity (Myo3, P36006): 81; SPOT intensity (Nbp2, Q12163): 3; SPOT intensity (Sla1-3, P32790): 290; SPOT intensity (Hse1, P38753): 134; SPOT intensity (Pin3, Q06449): 329
2 | IFLRISINFPLNYPN | 12 | 1 | 70 | 14 | 0 | 76 | 15 | 91 | 655 | 15 | 134 | 3 | 192 | 6 | 10 | 71 | 18 | 8 | 24 | 5 | SPOT intensity (Bem1-2, P29366): 3; SPOT intensity (Abp1, P15891): 212; SPOT intensity (Myo3, P36006): 71; SPOT intensity (Nbp2, Q12163): 74; SPOT intensity (Sla1-3, P32790): 199; SPOT intensity (Hse1, P38753): 143; SPOT intensity (Pin3, Q06449): 101
3 | PLRRTVMSLPGNHDI | 3 | 0 | 1 | 0 | 0 | 31 | 12 | 16 | 1 | 0 | 12 | 0 | 0 | 1 | 0 | 75 | 2 | 1 | 0 | 0 | SPOT intensity (Bem1-2, P29366): 6; SPOT intensity (Abp1, P15891): 24; SPOT intensity (Myo3, P36006): 23; SPOT intensity (Nbp2, Q12163): 18; SPOT intensity (Sla1-3, P32790): 0; SPOT intensity (Hse1, P38753): 1; SPOT intensity (Pin3, Q06449): 72
4 | TPEIPPPLPPKIMVH | 0 | 0 | 0 | 42 | 0 | 321 | 87 | 2 | 0 | 2240 | 52 | 0 | 0 | 0 | 96 | 0 | 0 | 0 | 0 | 0 | SPOT intensity (Bem1-2, P29366): 0; SPOT intensity (Abp1, P15891): 2; SPOT intensity (Myo3, P36006): 304; SPOT intensity (Nbp2, Q12163): 0; SPOT intensity (Sla1-3, P32790): 0; SPOT intensity (Hse1, P38753): 1540; SPOT intensity (Pin3, Q06449): 20
